Substitutions are numbered along the chain they refer to. Names and notes keep the numbering of the source.

Assay [1] deals with VHH14-Fc (huarizo). The assay can be described thus: BLI; Octet RED384, 25 °C, 1× Kinetics buffer; purified VHH-Fc captured on Protein G biosensors, mouse Plexin-B1 in solution (VHH14-Fc: 10-3.75 nM, 1800 s association, 7200 s dissociation; VHH15-Fc: 160-10 nM, 600 s, 510 s); global 1:1 fit.
Assay [2] concerns the target VHH14-Fc (huarizo). Put plainly: BLI; Octet RED384, 25 °C, 1× Kinetics buffer; VHH-Fc-loaded biosensors, mPlexin-B1 wildtype or H34Y P240Q at 400-6.25 nM, 300 s association, 600 s dissociation. In general terms: In BLI a coated tip is dipped into the sample, and binding shifts an interference pattern.

Sequence of VHH14-Fc (huarizo) (heavy, as listed by the source): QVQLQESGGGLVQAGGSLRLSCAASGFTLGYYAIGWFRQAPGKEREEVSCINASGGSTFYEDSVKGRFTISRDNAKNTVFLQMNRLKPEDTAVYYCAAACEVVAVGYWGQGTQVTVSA

B1: mouse Plexin-B1 (20–535)-6xHis (domain or fragment)
chain: LRSPLPAAFTANGTHLQHLARDPTTGTLYVGATNFLFQLSPGLQLEAVVSTGPVNDSRDCLPPVIPDECPQAQPTNNPNQLLLVSPEALVVCGSVHQGICELRSLGQIRQLLLRPERPGDTQYVAANDPAVSTVGLVAQGLVGEPLLFVGRGYTSRGVGGGIPPITTRALRPPDPQAAFSYEETAKLAVGRLSEYSHHFVSAFVRGASAYFLFLRRDLKAPSRAFRAYVSRVCLQDQHYYSYVELPLACQGGRYGLIQAAAVATSKEVARGDVLFAAFSSVAPPTVDWPLSASTGASGTSVLCAFPLDEVDQLANYTRDACYTREGRAENGTKVADIAYDVLSDCAQLPVDTPDAFPCGSDHTPSPMVSCVPLEATPILELPGVQLTAVAVTMEDGHTIAFLGDSQGQLHRVYLGPGRSAAPYSKQSIQPGSPVNRDLTFDGTFEHLYVATQTTLVKVPVAPCAQHLDCDSCLAHRDPYCGWCVLLGRCSRRSECSRDQGPEQWLWSFQPELGCLR
Broadly, the Kd is the equilibrium constant for the complex coming apart. Low readings indicate a tighter complex, high ones a looser complex. Regarding B1, the Kd is 0.237 nM in assay [1] and 3.13 nM in assay [2].

B2: mPlexin-B1 (20–535) H34Y P240Q (domain or fragment)
chain: B1 chain with H15Y, P221Q
As to B2, in assay [2], the equilibrium dissociation constant (Kd) was 255 nM.

(Values after article PMC10206189.)
